Experimental data from the DeepSol protein solubility set.

Assay: soluble on expression in E. coli; label from the status in PepcDB or PDB records
For “MKIFFITSNPGKVREVANFLGTFGIEIVQLKHEYPEIQAEKLEDVVDFGISWLKGKVPQPFMIEDSGLFIESLKGFPGVYSSYVYRTIGLEGILKLMEGAEDRRAYFKSVIGFYIDGKAYKFSGVTWGRISNEKRGTHGFGYDPIFIPEGSEKTFAEMTIEEKNALSHRGKALKAFFEWLKVNLKY”, the “soluble on expression in E. coli” value was “soluble”.
In the case of “MAFLPLYIPKGRRLKIVIVGGGYAGIAALVTLHRYSPDAEITLIDPGIDHLKITHLHETFRYPLSDFLVPYAFLEQRFGCRHIRSALAVDESMLCQWQRDRYLQVDDQQVPFDYLLVASGARSFTRNETDERTAADAENIVRLENFFTVSGADLLDRFLATQDRAGNTAPSCISVVGGGATGIQFLFELAGYLRRRRINHGLQLVDDNERVLQRYPGGFARYVEMRMLELDIEFYPGVCFLEQRADTVLLEDKTSGRHFELPSVLSLVFTGNRQDNLIKTNAFGQVMVDGKPLGNIFAAGDCSVYPSLGSNTMTAQSAVRKGKLAARNILRHSGVLKVLEPYLHHDLGYVVSLGPEDAVGWLAVENNVVTGVPALAIKEIVEAQYDLLLSGVDTYLVLEHHHHHH”, the “soluble on expression in E. coli” value is reported as “not soluble”.
In the case of “MSKHVNWSGVFPAVTTQFNADFSVNLEETHTVISNLVRDGVSGLVVCGSVGENTSLTIEEKMAVTEVAKDASGGRVPVICGIAEFTSAGAAKVAKAVERVGVDGIMVMPALVYSSKPHETAEHFRSVASGTDLPVMVYNNPPIYRNDVTPDILVSLADCENIVCFKDSSGDTRRFIDVRNQVGERFILFAGLDDVVLESVAVGAQGWISGMSNVFPKEGETIFRLARAGRFAEAMPIYEWLMPILHLDARPDLVQCIKLCEQLAGRGSALTRPPRLALRGADREHVERIMAKALASRPALPDVGL”, the “soluble on expression in E. coli” value is reported as “not soluble”.
With “MASEGGNSNGGTSGTGTKSEQDPKEGKRFFNFVFNVNKKITDETEMTQDFMNDLKHYQEFDETVTKCAGYLENVFIPYSSKGSKPEEEAFTRLATALGDFKSFVPQAYTAIFENFSTKMKAAGVSRKCHQALQAHDLRHMKKFHTESYEAFVEQRKKFDESRKKMDQAKADVRDAKTTTAIEKKAICYQLTVDDFDQKTEELIKIIEALPKVKQEYVRDIYLILSKHKQFHADMSKFFAASCVL” the “soluble on expression in E. coli” value was “not soluble”.
In the case of “VNQQQLQQLMDMGFTREHAMEALLNTSTMEQATEYLLTHP”, the “soluble on expression in E. coli” value is reported as “soluble”.
With “MGSDKIHHHHHHMNFIEQISENNQFPIIFVGSGITQRYFENAPTWEKLLKDIWLELFDEESYYAKAFELRERFENNDFDIYTNLASLLEKEVSKAFINGNIQVDNLDLKTAYELNISPFKQLVANRFSNLKIREEKIEEIKQFSQMLSKARIIITTNYDNFIEECLKTINVSVKINVGNKGLFLKSSDYGELYKIHGTVDDASTITITKEDYEKNVTKSALINAKILSNLVESPILFLGYSLTDENIRKLLTDFAENSPFDISESAQKIGVVEYLPDSESIETVVSSLPDLSVYYSCLKTDNFTNIYRLISKINQGFLPSEIAKYENVFRKIIEVKGESKDLKTVLTSYEDLANLTEDEIRSKNIVVAFGDERYIYKFPDFKEYVRSYFLDKETIPQEIVIRFIATQPVASHLPIKKYMFAMSEYISKDSNKYTENIKKRLSKEEELSLDDFTSSIGVPLLHSKTLERQTEIVGILEADVPDNVRYNFIATHIKNFPKEELFLLVEKIIDEGIFETSRRRFLKAFDLLHY” the “soluble on expression in E. coli” value was “not soluble”.
In the case of “MGSDKIHHHHHHMTELHREAFDYAPNMRRLRAVIAVAEAGSVMRAAEALHLSQPAVTRAVRDLEKELGLALFERHRSGMLCTTAGKIVLHRFRRALQQLIEAETALARLHPEGNFERLPQRLSHRQLTVLVAVADLHNEPLAAKRLGLTQPAVSGNLRDLERLLGIALFLRTQRGMLATDGGAVLIRHAKMALRELSLVSDDLSAWQGEVRGRVVIGTLPLSSSLLVPHAVDALLRELPGLNVTIIEGTYDALFESLRHGEIDILIGALRQAGTSEDTHQQRLFHDRLAVAARQGHPLMKHAALQLSDLLDAQWIAPRQGTPARVSFEQEFRSAGLQPPSVVVESGNLSTIRTLLLDSDRVTLVSPHQVFFEVQSGQLALLPIKLTGTLRPIGITTRADDSPTQALKVLKDILLTLGERMADPSSATRA”, the “soluble on expression in E. coli” value is reported as “not soluble”.
In the case of “MRVKGPSSRRKKKKILKLAKGYRGQRSRSYRRAKEAVMRALYYQYRDRKLRKREFRRLWIARINAAVRAYGLNYSTFINGLKKAGIELDRKILADMAVRDPQAFEQVVNKVKEALQVQ”, the “soluble on expression in E. coli” value is reported as “soluble”.
For “MTTERVLQYPNLLKIVPYLSYSKRMELSKVSPEFRSIHSRLDYSLKTMSFSQDYGAISEEGPIEVGSGILKVESIEYIFEYDENMDQVKIKCLLAPELVRFSNDKSIIRRYFHYYLAASQRIVQHVKLRESDSPFRNLQSLKIPSISWTLNGAREYPQFINFQNHVFEKLELINYESIVLTETQVKSCKHLVLKKETIYQEYTVGNENSAIRNFYCILSNMKLELVLGLNYVESFILLCNRLLLDTLHIGSSVTAIFIKEPLLNVWRTLLERYEDSRGTFMGSGHRKCAILSTDNNIKVAVFENYFGKDSNGKESFTAIKMNNNVEFDA”, the “soluble on expression in E. coli” value was “not soluble”.
In the case of “MYAIAEDTLPARVLKELLLYRRRYPEHRQSASEADEIRRIEQVQLPRIAAFIEAGEPIEFVLPAFPAKSPNPGKVLDSRPDMAERLSLSFLNHLCQRIQLFYAPGAKITVCSDGRVFGDLVRIGDAHISAYQDALRLMIEEIGATHIGVFNLEDVRAFEAQRDNHEQLRQLLIGGYAEPLESIRETLLASEEGLLLYRAITRFLYEDGLTPDYQGSKTALQRDAKERAYGVIQRSWAWGALLADQFPRAIRLSIHPQPADSLKFGIHMMPTRDDWLTPWHGVAVNTEDRFVLMKRSEVLELGGELVQINGQPSHYRLPARAARRAAVALEHHHHHH”, the “soluble on expression in E. coli” value is reported as “not soluble”.
In the case of “ESPEIQVEEQSFNFGLIPEEKGSVGHSFKFRNSGTAPLLITRVMADCGCTTPTWPEEAIAPGEEAEIRVLFDPVGRSGAFVKRIRVFSNAQSSPLE”, the “soluble on expression in E. coli” value is reported as “not soluble”.
With “SVKETENLLQTGISEVRGTLKISAPRDIGKQIISPMVSAFSEQYPDVTPYLYLNDNLSNLAESGLDLVIRYGELADSNLISRRLASSQRVLCASPDYLSKQGVPNCPQDLAAHRCLAMVRSNEELKTWHFKDEESHQSITVTPKRFSDDGEVIRQWALDGAGIALKSILDIQQDLKQQRLVTVLDGYMKNFSAFSQGAEADLHVIYQSRQYQPKRVRLFLDFLVEQFSALSDTSNQI” the “soluble on expression in E. coli” value was “not soluble”.
With “MGHHHHHHSHMAEISDLDRQIEQLRRCELIKESEVKALCAKAREILVEESNVQRVDSPVTVCGDIHGQFYDLKELFRVGGDVPETNYLFMGDFVDRGFYSVETFLLLLALKVRYPDRITLIRGNHESRQITQVYGFYDECLRKYGSVTVWRYCTEIFDYLSLSAIIDGKIFCVHGGLSPSIQTLDQIRTIDRKQEVPHDGPMCDLLWSDPEDTTGWGVSPRGAGYLFGSDVVAQFNAANDIDMICRAHQLVMEGYKWHFNETVLTVWSAPNYCYRCGNVAAILELDEHLQKDFIIFEAAPQETRGIPSKKPVADYFL” the “soluble on expression in E. coli” value was “not soluble”.
In the case of “MEVKMPFVVFVKRSVRFPGKHSYMIGGKSLLEIIVSKLSNIGKVYVFTKDKDIICNGCSIEFDTTNGIITDSVLAAIDKFGTFFAVAGDMPLIKPELVSKMLSQYKGSPLFPRHMDGMLEPLFGIYTEDLYNALKEYLDKGGESLHAFLLTQPLQYYDIGSDDEVNFININYKSDIEKYRDLLVQLLEHHHHHH”, the “soluble on expression in E. coli” value is reported as “soluble”.
With “GPGSMSAAGVTVRRAEREDTQRMYDLIMELAIYERAPECVVVSKAQMEEEGFGERPLWSAFVAELQETNDVKPRVIGMALYYYRYSTWRGRMLYLEDFIVTESHRGIGAGKMLFERVLQQAKEEGCHGMVWQALDWNAPAIEFYKKYDAEIDPGWVNCMLKF” the “soluble on expression in E. coli” value was “soluble”.
In the case of “GMPQPTVLLLARADLSPVGTEFTTGPIDAHDPFDSGRRTAFVDEQGIAAGIVEFGTALSVEAYPYTEMLVMHRGSVTLTSGTDSVTLSTGESAVIGRGTQVRIDAQPESLWAFCASTQASGPDKSGITALDRLALLTPSSPPDPSIMISPLPQCRSNNLFEDTASTLRIGVWDSTPYERISRPHKIHELMNLIEGRVVLSLENGSSLTVNTGDTVFVAQGAPCKWTSTGYVRKFYAVT”, the “soluble on expression in E. coli” value is reported as “soluble”.
In the case of “FTPVTKAAVINTFDGVADYLIRYKRLPNDYITKSQASALGWVASKGDLAEVAPGKSIGGDVFSNREGRLPSAGSRTWREADINYVSGFRNADRLVYSSDWLIYKTTDHYATFTRIR”, the “soluble on expression in E. coli” value is reported as “soluble”.
In the case of “MAARDPEATKARIFEAAVAEFARHGIAGARIDRIAAEARANKQLIYAYYGNKGELFASVLEKKMLDLAISVPVDPDDIEGWIDRLLDYHAAHPELLRLLFWEGMEYGTAELPHEAERQEHYARKVAAVRDGQERGVITDAIPAPDLLFLLVAMANWAVVVPQMKRILVGGGDAGTDGLRDSIKKAARRIVDR”, the “soluble on expression in E. coli” value is reported as “not soluble”.
In the case of “GSHMVNIIQKFIPVGANNRPGYAMKPKYITVHNTANTAVGADAAAHARYLKNPDTTTSWHFTVDDKEIYQHLPLNENGWHAGDGNGSGNRASIGIEICENADGDFAKATANAQWLIKTLMAEHNISLANVVPHKYWSGKECPRKLLDKWDSFKAGIG”, the “soluble on expression in E. coli” value is reported as “soluble”.
In the case of “MGSDKIHHHHHHMSSVSLQDFDAERIGLFHEDIKRKFDELKSKNLKLDLTRGKPSSEQLDFADELLALPGKGDFKAADGTDVRNYGGLDGIVDIRQIWADLLGVPVEQVLAGDASSLNIMFDVISWSYIFGNNDSVQPWSKEETVKWICPVPGYDRHFSITERFGFEMISVPMNEDGPDMDAVEELVKNPQVKGMWVVPVFSNPTGFTVTEDVAKRLSAMETAAPDFRVVWDNAYAVHTLTDEFPEVIDIVGLGEAAGNPNRFWAFTSTSKITLAGAGVSFFLTSAENRKWYTGHAGIRGIGPNKVNQLAHARYFGDAEGVRAVMRKHAASLAPKFNKVLEILDSRLAEYGVAQWTVPAGGYFISLDVVPGTASRVAELAKEAGIALTGAGSSYPLRQDPENKNLRLAPSLPPVEELEVAMDGVATCVLLAAAEHYAN”, the “soluble on expression in E. coli” value is reported as “not soluble”.
For “VSELSVATGAVSTASSSIPMPAGVNPADLAAELAAVVTESVDEDYLLYECDGQWVLAAGVQAMVELDSDELRVIRDGVTRRQQWSGRPGAALGEAVDRLLLETDQAFGWVAFEFGVHRYGLQQRLAPHTPLARVFSPRTRIMVSEKEIRLFDAGIRHREAIDRLLATGVREVPQSRSVDVSDDPSGFRRRVAVAVDEIAAGRYHKVILSRCVEVPFAIDFPLTYRLGRRHNTPVRSFLLQLGGIRALGYSPELVTAVRADGVVITEPLAGTRALGRGPAIDRLARDDLESNSKEIVEHAISVRSSLEEITDIAEPGSAAVIDFMTVRERGSVQHLGSTIRARLDPSSDRMAALEALFPAVTASGIPKAAGVEAIFRLDECPRGLYSGAVVMLSADGGLDAALTLRAAYQVGGRTWLRAGAGIIEESEPEREFEETCEKLSTLTPYLVARQ”, the “soluble on expression in E. coli” value was “soluble”.
For “MSLNTLNQDIAFKIFTMFYKVCYGKKKHTYTSFFEKFQICTYNDILLLCDEVAKLFKMENSLENVTLPCKVFGDVHGNLFDLLDFFNLYNWPMHNNKVFLGNLINRGNYSLEVICLLFSLKILFPKHIYLLRGNHEDRLFNYIYGFYKDIEIKMKTNMEYMGIINYQEQVISAHSYELFNRINDVFEFFPLCVLLDKNILCIHGGIGDSVMTISDYQHIRKPILIPQNVDRYSNNKSEHVKKIIIDTLWSDPINYNDELDLQLLKNSSTYDIIPSRRGNITFKFGKHRLNDFLKNNQLKLIIRGHECVQEGYKYSYKRKLLTLFSAKNYCNKYNNNASNAFIVRKNKNIIIFNQILKYQHNCEGHHHHHH”, the “soluble on expression in E. coli” value was “not soluble”.
For “VKVRYENDKYLIPFASLDANQRMEFDLKDPQGKVILLAGKKLTSRKIKELKENHLEWVEYPMDILLNRHLAEPVMVGKEVLLDMLTQLDKNKLEKIHDLG”, the “soluble on expression in E. coli” value was “not soluble”.
In the case of “HFVIRSPEDGANLVMEDMRFLTQEHFVCLYLNTKNQVIHKRTVFIGSLNSSIVHPREVFKEAFKRSAASFICVHNHPSGDPTPSREDIEVTRRLFECGNLIGIELLDHLVIGDKKFVSLKEKGYL”, the “soluble on expression in E. coli” value is reported as “not soluble”.
